Reference: the Immune Epitope Database (IEDB)
One block for each sequence: values may come before it.

What was measured:
HLA-B*07:02 = test: IEDB peptide-MHC binding, purified MHC/competitive/radioactivity; filed as Kd, often an IC50 or EC50 that approximates it; ≥ and ≤ were set here for values at or beyond the usual limits of such assays
HLA-B*35:01 = test: as above
HLA-B*51:01 [1] = test: as above
HLA-B*53:01 = test: as above
HLA-B*54:01 = test: as above
HLA-A*02:03 = test: IEDB peptide-MHC binding, purified MHC/direct/fluorescence; filed as Kd, often an IC50 or EC50 that approximates it; ≥ and ≤ were set here for values at or beyond the usual limits of such assays; conditions: source organism: Pergamino virus
HLA-A*02:11 = test: as above; conditions: source organism: Pergamino virus
HLA-A*02:12 = test: as above; conditions: source organism: Pergamino virus
HLA-A*02:16 = test: as above; conditions: source organism: Pergamino virus
HLA-A*02:19 = test: as above; conditions: source organism: Pergamino virus
HLA-A*03:01 = test: as above; conditions: source organism: Pergamino virus
HLA-A*26:01 = test: as above; conditions: source organism: Orthohantavirus andesense
HLA-A*68:02 = test: as above; conditions: source organism: Pergamino virus
HLA-B*15:01 = test: as above; conditions: source organism: Orthohantavirus andesense
HLA-A*02:01 = test: IEDB peptide-MHC binding, purified MHC/competitive/fluorescence; filed as Kd, often an IC50 or EC50 that approximates it; ≥ and ≤ were set here for values at or beyond the usual limits of such assays; conditions: source organism: Lechiguanas virus
HLA-A*69:01 = test: as above; conditions: source organism: Lechiguanas virus
HLA-B*18:01 = test: as above; conditions: source organism: Lechiguanas virus
HLA-B*27:03 = test: as above; conditions: source organism: Lechiguanas virus
HLA-B*39:01 = test: as above; conditions: source organism: Lechiguanas virus
HLA-B*46:01 = test: as above; conditions: source organism: Lechiguanas virus
HLA-B*51:01 [2] = test: as above; conditions: source organism: Lechiguanas virus
HLA-B*57:01 = test: as above; conditions: source organism: Lechiguanas virus
HLA-A*29:02 = test: as above; conditions: source organism: Escherichia coli HS
[3] = source organism: Triticum aestivum
[4] = source organism: Vaccinia virus WR
[5] = source organism: Mammarenavirus brazilense
[6] = source organism: SARS coronavirus Tor2

Kd (HLA-B*07:02; [3]): 0.206 µM | Kd (HLA-B*35:01; [3]): ≥ 21.5 µM | Kd (HLA-B*51:01 [1]; [3]): ≥ 27.4 µM | Kd (HLA-B*53:01; [3]): 11.6 µM | Kd (HLA-B*54:01; [3]): 1.08 µM
Sequence: PPYCTIAPV

Kd (HLA-B*07:02; [3]): ≥ 87.3 µM | Kd (HLA-B*35:01; [3]): ≥ 87.8 µM | Kd (HLA-B*51:01 [1]; [3]): 0.041 µM | Kd (HLA-B*53:01; [3]): ≥ 87.7 µM | Kd (HLA-B*54:01; [3]): ≥ 43.2 µM
Sequence: QPQEQVPL

Sequence: SCINGQCPY
Kd (HLA-A*02:03): ≥ 20 µM | Kd (HLA-A*02:11): ≥ 20 µM | Kd (HLA-A*02:12): ≥ 20 µM | Kd (HLA-A*02:16): ≥ 20 µM | Kd (HLA-A*02:19): ≥ 20 µM | Kd (HLA-A*03:01): ≥ 20 µM | Kd (HLA-A*26:01): 2.22 µM | Kd (HLA-A*68:02): ≥ 20 µM | Kd (HLA-B*15:01): 6 µM | Kd (HLA-A*02:01): ≥ 20 µM | Kd (HLA-A*69:01): ≥ 20 µM | Kd (HLA-B*18:01): ≥ 20 µM | Kd (HLA-B*27:03): ≥ 20 µM | Kd (HLA-B*39:01): ≥ 20 µM | Kd (HLA-B*46:01): ≥ 20 µM | Kd (HLA-B*51:01 [2]): ≥ 20 µM | Kd (HLA-B*57:01): ≥ 20 µM

Sequence: SPPIPMSRL
Kd (HLA-B*07:02; [4]): 0.000766 µM | Kd (HLA-B*35:01; [4]): ≥ 53.1 µM | Kd (HLA-B*51:01 [1]; [4]): 0.912 µM | Kd (HLA-B*53:01; [4]): 9.29 µM | Kd (HLA-B*54:01; [4]): ≥ 41.5 µM

Sequence: SPPLISILMI
Kd (HLA-B*07:02; [4]): 1.01 µM | Kd (HLA-B*35:01; [4]): ≥ 69.9 µM | Kd (HLA-B*51:01 [1]; [4]): 1.15 µM | Kd (HLA-B*53:01; [4]): 2.22 µM | Kd (HLA-B*54:01; [4]): 7.63 µM

Sequence: TPTQLAETI
Kd (HLA-B*07:02; [5]): 1.8 µM | Kd (HLA-B*35:01; [5]): 0.66 µM | Kd (HLA-B*51:01 [1]; [5]): 1.42 µM | Kd (HLA-B*53:01; [5]): 0.183 µM | Kd (HLA-B*54:01; [5]): 15.3 µM

Sequence: VPANSTVLSF
Kd (HLA-B*07:02; [6]): 1.71 µM | Kd (HLA-B*35:01; [6]): 0.355 µM | Kd (HLA-B*51:01 [1]; [6]): 3.25 µM | Kd (HLA-B*53:01; [6]): 0.0952 µM | Kd (HLA-B*54:01; [6]): 16.9 µM

Kd (HLA-A*29:02): 0.744 µM
Sequence: VVIPTAALQ
